The values below come from patent US20230181756A1 (Novartis, published 2023).

Assay [1] has as its target T1, CXCR4 (UniProt P61073 1-352, limits assumed).
T1 construct: whole, on cells; also called HEK293-CXCR4
Description: FACS on HEK293-CXCR4 cells.

Assay [2] addresses T2, CCR8 (UniProt P51685 1-355, limits assumed).
T2 construct: whole, on cells; also called CHO-CCR8
Description: FACS on CHO-CCR8 cells.

The target of assay [3] is T3, human CCR7 (human, UniProt P32248 25-378).
T3 construct: The assay field tells which; also called hCCR7; NIH3T3.hCCR7
T3 sequence: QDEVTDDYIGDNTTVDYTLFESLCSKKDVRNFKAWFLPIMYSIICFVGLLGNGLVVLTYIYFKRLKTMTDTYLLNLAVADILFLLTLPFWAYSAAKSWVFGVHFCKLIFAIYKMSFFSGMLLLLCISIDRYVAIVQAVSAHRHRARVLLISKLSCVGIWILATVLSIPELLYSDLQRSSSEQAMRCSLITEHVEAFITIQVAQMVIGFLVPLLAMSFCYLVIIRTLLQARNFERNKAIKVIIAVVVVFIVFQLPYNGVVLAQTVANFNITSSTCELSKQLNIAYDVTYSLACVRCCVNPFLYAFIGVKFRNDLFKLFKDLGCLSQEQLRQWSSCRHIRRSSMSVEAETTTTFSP
Kind of assay: FACS titration, NIH3T3 cells expressing human CCR7.

Assay [4] deals with T4, cynomolgus monkey CCR7 (cynomolgus monkey, UniProt P32248 25-378 (human entry)).
T4 construct: also called Cyno CCR7; NIH3T3.cyno CCR7
T4 sequence: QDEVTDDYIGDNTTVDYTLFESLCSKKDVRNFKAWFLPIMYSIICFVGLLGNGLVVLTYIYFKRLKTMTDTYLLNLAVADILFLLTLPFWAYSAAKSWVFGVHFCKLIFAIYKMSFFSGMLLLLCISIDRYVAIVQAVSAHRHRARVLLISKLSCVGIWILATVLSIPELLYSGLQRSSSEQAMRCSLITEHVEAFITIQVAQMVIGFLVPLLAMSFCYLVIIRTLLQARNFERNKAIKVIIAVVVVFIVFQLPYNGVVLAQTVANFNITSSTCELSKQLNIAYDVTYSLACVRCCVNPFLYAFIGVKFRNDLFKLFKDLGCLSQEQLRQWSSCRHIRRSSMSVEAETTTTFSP
Description: FACS titration, NIH3T3 cells expressing cyno CCR7.

Assay [5] concerns the target T4, cynomolgus monkey CCR7. Description: FACS titration, cynomolgus CD4+ T cells.
Assay [6] deals with T3, human CCR7. Description: ELISA on CCR7-expressing VLPs, pH 5.8 buffer. For orientation: ELISA stands for enzyme-linked immunosorbent assay.
In assay [7] the target is T3, human CCR7. Description: FACS titration, human CD4+ T cells from PBMC.
For assay [8], the target named is T5, CCR9 (UniProt P51686 1-369, limits assumed).
T5 construct: whole, on cells; also called PF382 cells (CCR7-/CCR9+/CCR6+)
T5 sequence (looked up): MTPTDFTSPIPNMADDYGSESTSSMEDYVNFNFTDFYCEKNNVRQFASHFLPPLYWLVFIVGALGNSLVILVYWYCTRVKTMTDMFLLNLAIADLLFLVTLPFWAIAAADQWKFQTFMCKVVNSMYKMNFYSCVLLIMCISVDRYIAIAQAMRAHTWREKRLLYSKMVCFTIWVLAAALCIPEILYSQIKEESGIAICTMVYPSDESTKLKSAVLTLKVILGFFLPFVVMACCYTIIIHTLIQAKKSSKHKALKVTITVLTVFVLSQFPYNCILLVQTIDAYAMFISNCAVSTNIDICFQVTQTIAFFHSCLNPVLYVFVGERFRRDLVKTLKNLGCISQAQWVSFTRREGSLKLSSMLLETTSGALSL
Description: FACS on PF382 cells (CCR7-/CCR9+/CCR6+).

The target of assay [9] is T6, CCR6 (UniProt P51684 1-374, limits assumed).
T6 construct: whole, on cells; also called PF382 cells (CCR7-/CCR9+/CCR6+)
T6 sequence (looked up): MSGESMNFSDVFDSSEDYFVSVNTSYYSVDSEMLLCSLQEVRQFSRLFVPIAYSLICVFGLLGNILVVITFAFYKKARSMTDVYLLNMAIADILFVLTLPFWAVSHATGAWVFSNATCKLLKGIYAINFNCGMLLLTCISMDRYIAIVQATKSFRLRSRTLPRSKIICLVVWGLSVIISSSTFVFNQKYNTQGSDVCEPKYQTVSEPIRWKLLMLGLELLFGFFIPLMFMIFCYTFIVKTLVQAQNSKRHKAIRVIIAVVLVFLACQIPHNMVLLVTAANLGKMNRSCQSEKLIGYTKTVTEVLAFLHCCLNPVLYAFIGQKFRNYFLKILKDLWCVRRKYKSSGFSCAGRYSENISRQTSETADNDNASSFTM
Kind of assay: FACS on PF382 cells (CCR7-/CCR9+/CCR6+).

Assay [10] addresses T3, human CCR7. Kind of assay: FACS titration, DEL cells (CCR7 receptor levels >=100,000).
Assay [11] has as its target T3, human CCR7. Kind of assay: ELISA on CCR7-expressing VLPs, pH 7.4 buffer.
Assay [12] concerns the target T3, human CCR7. Kind of assay: FACS titration, Jeko-1 cancer cells (CCR7+).
Assay [13] addresses T7, mouse CCR7 (mouse, UniProt P47774 25-378).
T7 construct: also called NIH3T3.mouse CCR7
T7 sequence: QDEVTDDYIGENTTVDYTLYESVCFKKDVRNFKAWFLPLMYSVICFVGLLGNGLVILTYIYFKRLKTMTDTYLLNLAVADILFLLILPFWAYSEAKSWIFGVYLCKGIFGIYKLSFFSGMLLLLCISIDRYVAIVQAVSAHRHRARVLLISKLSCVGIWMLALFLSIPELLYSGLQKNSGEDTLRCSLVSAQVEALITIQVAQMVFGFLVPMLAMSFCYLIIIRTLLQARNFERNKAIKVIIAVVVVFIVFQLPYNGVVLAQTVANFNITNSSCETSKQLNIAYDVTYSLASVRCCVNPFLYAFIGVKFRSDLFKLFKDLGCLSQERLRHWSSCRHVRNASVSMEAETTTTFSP
Kind of assay: FACS titration, CD-1 mouse CD4+ T cells.

The target in assay [14] is T3, human CCR7. Kind of assay: FACS titration, human CD4+ T cells from PBMC. This is another data set of the same source.
Assay [15] has as its target T8, rat CCR7 (rat, UniProt P47774 25-378 (mouse entry)).
T8 construct: also called NIH3T3.rat CCR7
T8 chain: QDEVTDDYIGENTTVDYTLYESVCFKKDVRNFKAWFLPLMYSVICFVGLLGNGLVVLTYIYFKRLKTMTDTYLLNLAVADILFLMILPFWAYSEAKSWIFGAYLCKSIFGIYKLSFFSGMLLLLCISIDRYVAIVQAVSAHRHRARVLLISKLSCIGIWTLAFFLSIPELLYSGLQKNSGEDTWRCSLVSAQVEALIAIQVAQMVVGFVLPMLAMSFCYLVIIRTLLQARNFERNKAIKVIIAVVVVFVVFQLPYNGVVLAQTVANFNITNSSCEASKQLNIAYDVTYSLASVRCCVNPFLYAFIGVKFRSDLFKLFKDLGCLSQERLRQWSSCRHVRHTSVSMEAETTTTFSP
Kind of assay: FACS titration, NIH3T3 cells expressing rat CCR7.

The target of assay [16] is T3, human CCR7. Kind of assay: cell-based or functional assay.
Assay [17] has as its target T4, cynomolgus monkey CCR7. Description: FACS titration, cynomolgus CD4+ T cells. The source holds these as a separate data set.
Assay [18] addresses T7, mouse CCR7. Kind of assay: FACS titration, NIH3T3 cells expressing mouse CCR7.
Assay [19] has as its target T8, rat CCR7. Description: FACS titration, Wistar rat CD4+ T cells.
The target of assay [20] is T3, human CCR7. Description: FACS titration, NIH3T3 cells expressing human CCR7. The source holds these as a separate data set.
For assay [21], the target named is T4, cynomolgus monkey CCR7. Kind of assay: FACS titration, NIH3T3 cells expressing cyno CCR7. This is another data set of the same source.

T1 sequence (P61073 whole entry): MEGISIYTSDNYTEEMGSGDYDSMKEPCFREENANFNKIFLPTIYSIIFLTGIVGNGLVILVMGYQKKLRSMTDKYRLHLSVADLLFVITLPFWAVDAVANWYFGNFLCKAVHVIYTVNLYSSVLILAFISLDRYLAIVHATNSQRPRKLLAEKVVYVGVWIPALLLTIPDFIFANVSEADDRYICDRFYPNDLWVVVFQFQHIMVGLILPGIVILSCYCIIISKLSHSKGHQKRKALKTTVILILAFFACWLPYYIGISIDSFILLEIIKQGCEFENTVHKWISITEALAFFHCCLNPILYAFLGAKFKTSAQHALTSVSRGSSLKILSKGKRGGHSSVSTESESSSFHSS
T2 sequence (P51685 whole entry): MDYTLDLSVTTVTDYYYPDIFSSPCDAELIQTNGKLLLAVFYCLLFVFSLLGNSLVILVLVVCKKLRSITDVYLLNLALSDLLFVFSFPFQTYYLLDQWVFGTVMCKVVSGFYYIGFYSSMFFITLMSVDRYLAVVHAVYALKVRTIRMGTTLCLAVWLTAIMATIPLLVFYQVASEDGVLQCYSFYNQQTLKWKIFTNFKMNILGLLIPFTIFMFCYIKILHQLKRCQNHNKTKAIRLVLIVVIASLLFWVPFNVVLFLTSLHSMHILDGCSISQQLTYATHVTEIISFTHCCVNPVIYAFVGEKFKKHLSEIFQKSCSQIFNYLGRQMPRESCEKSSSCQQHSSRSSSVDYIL

B1: 121G12 humanized CysMab (Fc Wild Type) (antibody, V domains shown)
VH: EVQLVESGGGLVKPGGSLRLSCAASGFTFSTYAMSWVRQAPGKGLEWVATISDAGSYSYYPDNVKGRFTISRDNAKNSLYLQMNSLRAEDTAVYYCARRGSRYEEYYVMDYWGQGTTVTVSS
VL: EIVLTQSPATLSVSPGERVTLSCRASQSISNNLHWYQQKPGQAPRLLIKYASQSISGIPARFSGSGSGTDFTLTISSVEPEDFGVYFCQQSSSWLTFGQGTKLEIK
notes: Human IgG1 kappa with CysMab cysteines (E152C, S375C); also called Humanized CysMab antibody 121G12; 121G12.CysMab.DAR4 unconjugated (assigned)
For B1, the binding result in [1], in assay [2], in assay [8] and in assay [9] was “no binding (tested: 5 ug/ml)” throughout. Also, the concentration for a half-maximal effect (EC50) in [3] is 1 nM; in [4] it was 0.9 nM; in assay [5], 12 nM; in assay [7], 30 to 34 nM; in assay [10], 5.24 nM. The Kd was 0.521 nM in assay [6] and 0.141 nM in assay [11].

B2: 121G12 non-humanized CysMab (antibody, human IgG1, kappa, V domains shown)
VH: EVQLVESGGGLVKPGGSLKLSCAASGFTFSTYAMSWVRQTPEKRLEWVATISDGGSYSYYPDNVKGRFTISRDNAKNNLYLQMSHLKSEDTAMYYCARRGSRYEEYYVMDYWGQGTSVTVSS
VL: DIVLTQSPATLSVTPGDSVSLSCRASQSISNNLHWYQQKSHESPKLLIKYASQSISGIPSRFSGSGSGTDFTLSINSVETEDFGMYFCQQSNSWLTFGAGTKLGLKR
notes: Chimeric: murine variable regions on human IgG1 kappa with CysMab cysteines (E152C, S375C) and wild type Fc; also called Parental 121G12 hIgG1 CysMab; Non-humanized CysMab antibody 121G12
Take B2: the half-maximal effective concentration (EC50) was 1.5 nM in assay [12]; 48 to 51 nM in [13]; 22 to 30 nM in assay [14]; 2.4 nM in assay [15]; 5.8 to 12 nM in assay [17]; 2.5 nM in assay [18]. Further, the results for the 50% effective concentration (EC50) in [19], in assay [20] and in [21] were 18 to 31 nM, 1.3 nM and 1.3 nM, respectively. For the same molecule, the “ADCC activity; IC50 (nM); reporter assay, JVM2 targets and Jurkat-V158 effectors” value in assay [16] worked out at 0.077 nM.

The term EC50 denotes the concentration that produces a half-maximal response. Broadly, the Kd is the free concentration of one partner at which half of the binding sites on the other are occupied at equilibrium, for simple one-to-one binding.
